Values quoted from earlier work in patent publication US20200069786A1, “COMPOSITION AND PROCESS FOR PREPARING VACCINE” (TREOS BIO ZRT., priority 2018, published 2020).
Where two headings read alike, the source gives them in different places.

System: TSA
[1] = TSA expression rate in PROSTATE cancer
[2] = TSA expression rate in MELANOMA

| Molecule | Expression Rate (ER) % [1] [%] | Expression Rate (ER) % (TSA expression rate in CRC) [%] | Expression Rate (ER) % [2] [%] | further results |
| --- | --- | --- | --- | --- |
| SPATA19 (protein, UniProt Q7Z5L4 25-167, looked up) Spermatogenesis-associated …: SSDIDVVESEAVSVLHHWLKKTEEEASRGIKEKLSINHPSQGVREKMSTDSPPTHGQDIHVTRDVVKHHLSKSDLLANQSQEVLEERTRIQFIRWSHTRIFQVPSEMTEDIMRDRIEQVRRSISRLTDVSAQDFSMRPSSSDC | 88 |  |  |  |
| NR6A1 (protein, UniProt Q15406 1-480, looked up) Nuclear receptor subfamily 6 …: MERDEPPPSGGGGGGGSAGFLEPPAALPPPPRNGFCQDELAELDPGTISVSDDRAEQRTCLICGDRATGLHYGIISCEGCKGFFKRSICNKRVYRCSRDKNCVMSRKQRNRCQYCRLLKCLQMGMNRKAIREDGMPGGRNKSIGPVQISEEEIERIMSGQEFEEEANHWSNHGDSDHSSPGNRASESNQPSPGSTLSSSRSVELNGFMAFREQYMGMSVPPHYQYIPHLFSYSGHSPLLPQQARSLDPQSYSLIHQLLSAEDLEPLGTPMLIEDGYAVTQAELFALLCRLADELLFRQIAWIKKLPFFCELSIKDYTCLLSSTWQELILLSSLTVYSKQIFGELADVTAKYSPSDEELHRFSDEGMEVIERLIYLYHKFHQLKVSNEEYACMKAINFLNQDIRGLTSASQLEQLNKRYWYICQDFTEYKYTHQPNRFPDLMMCLPEIRYIAGKMVNVPLEQLPLLFKVVLHSCKTSVGKE | 25 |  |  |  |
| TSP50 (protein, UniProt Q9UI38 40-385, looked up) Probable threonine protease …: AGEAPGALSTADPADQSVQCVPKATCPSSRPRLLWQTPTTQTLPSTTMETQFPVSEGKVDPYRSCGFSYEQDPTLRDPEAVARRWPWMVSVRANGTHICAGTIIASQWVLTVAHCLIWRDVIYSVRVGSPWIDQMTQTASDVPVLQVIMHSRYRAQRFWSWVGQANDIGLLKLKQELKYSNYVRPICLPGTDYVLKDHSRCTVTGWGLSKADGMWPQFRTIQEKEVIILNNKECDNFYHNFTKIPTLVQIIKSQMMCAEDTHREKFCYELTGEPLVCSMEGTWYLVGLVSWGAGCQKSEAPPIYLQVSSYQHWIWDCLNGQALALPAPSRTLLLALPLPLSLLAAL |  | 89 |  | Expression Rate (ER) % (TSA expression rate in GASTRIC cancer): 57% |
| PAGE5 (protein, UniProt Q96GU1 1-130, looked up) P antigen family member 5: MQAPWAGNRGWAGTREEVRDMSEHVTRSQSSERGNDQESSQPVGPVIVQQPTEEKRQEEEPPTDNQGIAPSGEIKNEGAPAVQGTDVEAFQQELALLKIEDAPGDGPDVREGTLPTFDPTKVLEAGEGQL |  | 11 | 22 | Expression Rate (ER) % (TSA expression rate in Kidney): 44% |
| XAGE-2 (protein, UniProt Q96GT9 1-111, looked up) X antigen family member 2: MSWRGRSTYRPRPRRSLQPPELIGAMLEPTDEEPKEEKPPTKSRNPTPDQKREDDQGAAEIQVPDLEADLQELCQTKTGDGCEGGTDVKGKILPKAEHFKMPEAGEGKSQV |  |  | 14 | Expression Rate (ER) % (TSA expression rate in HEAD and NECK): 6%; Expression Rate (ER) % (TSA expression rate in PEDIATRIC): 14% |
| BAGE-2 (protein, UniProt Q86Y30 18-109, looked up) B melanoma antigen 2: RLMKEESPVVSWRLEPEDGTALDVHFVSTLEPLSNAVKRNVPRCIIILVLQEPTAFRISVTSSCFVQNTLTKLLKDRRKMQTVQCATARETS |  |  | 23 |  |
| BAGE-3 (protein, UniProt Q86Y29 18-109, looked up) B melanoma antigen 3: RLMKEESPVVSWRLEPEDGTALDVHFVSTLEPLSNAVKRNVPRCIIILVLQEPTPFRISVTSSCFVQNTLTKLLKDRRKMQTVQCATAQETS |  |  | 14 |  |
| PAGE4 (protein, UniProt O60829 1-102, looked up) P antigen family member 4: MSARVRSRSRGRGDGQEAPDVVAFVAPGESQQEEPPTDNQDIEPGQEREGTPPIEERKVEGDCQEMDLEKTRSERGDGSDVKEKTPPNPKHAKTKEAGDGQP | 100 | 33 |  |  |
